The source of these data is paper PMC10208894, “The SmNPR4-SmTGA5 module regulates SA-mediated phenolic acid biosynthesis in Salvia miltiorrhiza hairy roots”.

For series [1], the target named is T1, SmTGA5 (Salvia miltiorrhiza, UniProt UPI0025ACD97B 1-458).
T1 sequence: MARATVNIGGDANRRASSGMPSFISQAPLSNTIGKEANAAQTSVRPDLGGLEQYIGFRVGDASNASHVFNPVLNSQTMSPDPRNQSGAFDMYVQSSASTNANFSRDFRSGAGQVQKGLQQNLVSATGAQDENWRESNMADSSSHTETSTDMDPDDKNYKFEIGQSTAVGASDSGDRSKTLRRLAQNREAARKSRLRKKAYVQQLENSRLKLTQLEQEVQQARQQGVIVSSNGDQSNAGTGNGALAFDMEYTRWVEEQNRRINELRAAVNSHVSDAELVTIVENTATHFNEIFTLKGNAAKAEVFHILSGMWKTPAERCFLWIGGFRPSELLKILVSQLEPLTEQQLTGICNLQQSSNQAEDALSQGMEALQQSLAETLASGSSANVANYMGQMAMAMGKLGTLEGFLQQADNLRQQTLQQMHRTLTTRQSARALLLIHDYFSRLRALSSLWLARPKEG
The experiment in a line: EMSA; Beyotime GS009 EMSA kit, 20-25 C, 20 min, acrylamide gel; buffer, salt and pH not stated. To be noted: protein: recombinant; tags: His (pET32a, N-terminal fusion); chain copies: 2; blunt. On the technique in general: Mobility shift assays separate free from complexed probe on a gel.

Series [2] has as its target T1, SmTGA5. The experiment in a line: EMSA; unlabeled probe at 1:10 and 1:100 reduces the shift; Beyotime GS009 EMSA kit, 20-25 C, 20 min, acrylamide gel; buffer, salt and pH not stated. The settings on record: protein: recombinant; tags: His (pET32a, N-terminal fusion); chain copies: 2; blunt.

B1: Mut-Probe-pTAT1 (dsDNA)
DNA 1: TTTAAAGTTAAATGTATCATTTAAAGTTAAATGTATCATTTAAAGTTAAATGTATCA
DNA 2: TGATACATTTAACTTTAAATGATACATTTAACTTTAAATGATACATTTAACTTTAAA
For the molecule B1, in the series with SmTGA5 [1], the binding result is recorded as “no binding”.

B2: Probe-pTAT1 (3x as-1) (dsDNA)
DNA 1: TTTAAAGTGACGTGTATCATTTAAAGTGACGTGTATCATTTAAAGTGACGTGTATCA
DNA 2: TGATACACGTCACTTTAAATGATACACGTCACTTTAAATGATACACGTCACTTTAAA
Take B2: in the series with SmTGA5 [2], the binding result was “binds”.
